Source: a protein production outcome set (Wang et al. 2014)

Assay: label from the status in PepcDB records
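Note: failed if final PepcDB status was selected cloned or expressed and not failed if soluble or beyond.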

Row | Sequence | protein production
1 | MSLDARFDIAHLARAELFSPKPQETLDFFTKFLGMYVTHREGQSVYLRGYEDPYPWSLKITEAPEAGMGHAAMRTSSPEALERRAKSLTDGNVDGTWSEDQFGYGKTFEYQSPDGHNLQLLWEAEKYVAPPELRSKILTRPSKKPLQGIPVKRIDHLNLMSSDVTAVKDSFERHLGFRTTERVVDGNVEIGAWMSSNLLGHEVACMRDMTGGHGKLHHLAFFYGTGQHNIDAVEMFRDYDIQIEAGPDKHGITQSQFLYVFEPGGNRIELFGEAGYLHLDPDAETKTWQMSDIDTGLAVGGAKLPWESYFTYGTPSPLSLDQHIEKYAHFGEGHHHHHH | not failed
2 | MSLDFHGVFPYLVSPVDAEGRVRADVMGRLCDDLIQAGVHGLTPLGSTGEFAYLGTAQREAVVRATIEAAQRRVPVVAGVASTSVADAVAQAKLYEKLGADGILAILEAYFPLKDAQIESYFRAIADAVEIPVVIYTNPQFQRSDLTLDVIARLAEHPRIRYIKDASTNTGRLLSIINRCGDALQVFSASAHIPAAVMLIGGVGWMAGPACIAPRQSVALYELCKAQRWDEALMLQRKLWRVNEAFAKFNLAACIKAGLALQGYDVGDPIPPQAALTAEERKAVEKVLAEIAEGHHHHHH | not failed
3 | MSLDKAIKEVRGNGKLKVAVFSDPDCPFCKRLEHEFEKMTDVTVYSFMMPIAGLHPDAARKAQILWCQPDRAKAWTDWMRKGKFPVGGSICDNPVAETTSLGEQFGFNGTPTLVFPNGRTQSGYSPMPQLEEIIRKNQQEGHHHHHH | not failed
4 | MSLDKVLEDEVVEDTGESQVFNLLNPEFVDFDTCLDPITNELPTSETTKPAGELRREKTPAKKGNSNSSSVDHRFTSASRAFTQKKLDDLKSLFVSLASKSHSNDQYVSYPVFQEYFGLSGSLGERIFDMVTQHRKDDKMTFEDLVIAKMTFEDLVIAKVHT | failed
5 | MSLDNSRTRPRVGHIQFLNCLPLYWGLARTGTLLDFELTKDTPEKLSEQLVRGDLDIGPVTLVEFLKNADDLVAFPDIAVGCDGPVMSCVIVSQVPLDRLDGARVALGSTSRTSVRLAQLLLSERFGVQPDYYTCPPDLSLMMQEADAAVLIGDAALRANMIDGPRYGLDVHDLGALWKEWTGLPFVFAVWAARRDYAEREPVITRKVHEAFLASRNLSLEEVEKVAEQAARWEAFDEDTLAKYFTTLDFRFGAPQLEAVTEFARRVGPTTGFPADVKVELLKPEGHHHHHH | not failed
6 | MSLDRIRLASLHDKVISADAAAAFIQDGMTVGMSGFTRAGEAKAVPQALVERAKQNPLKITLITGASLGNDLDKQLTEAGVLARRLPFQVDNTLRRAINNGEVMFIDQHLSETVEQMRNLQLKRPDVAVIEAIAITEDGGIIPTTSVGNSASFAIFAEKVIVEINTSLSEAFEGLHDIYIPSYRPTRQPIPLTKVDERIGTTAIQIDPAKIVGIVFNDTADSPSTVTLPDDETQGIANHLIAFFEKEVAEGRLPQNLGPLQAGIGSIANAVLTGLKDSNFEDLVMYSEVLQDCTFELIDAGKMKFASGSSITLSAKCGEKVFGNIEAYKDKLVLRPQEISNHPELVRRLGIIGINTALEFDIYGNVNSTHVCGTKMMNGIGGSGDFARNAHLAIFVTKSIAKGGDISSIVPMVSHVDHSEHDVDILVTEQGLADLRGLAPRERARAVIDHCVHPLYKDALNDYFSRASAKGGHTPHLLREALSWHVNFEENGHMLAIEPEAKSA | failed
7 | MSLDRPRCCLRGKECSINRFQQVESRWGYSGTSDRIRFSVNKRIFVVGFGLYGSIHGPTDYQVNIQIIHTDSNTVLGQNDTGFSCDGSASTFRVMFKEPVEVLPNVNYTACATLKGPDSHYGTKGMRKVTHESPTTGAKTCFTFCYAAGNNNGTSVEDGQIPEVIFYTEGHHHHHH | not failed
8 | MSLDSPLYGRSFADDKMRELFSAQSFISRCVETEVALARAQARLGIIPEDAAAGITAAARTFAPEMERLRDDTEIVGYPILPLVEQLSAHAGEAGKYLHWGATTQDIMDTATVLQIRDGLALISRRIESVRKALAALARNHRDTPMAGRTHLQHALPVTFGYKAAVWLSAFDRHAARLEEISPRVLVVEFSGASGTLASLGTRGLDVQRELARELNLGVPSITWHSARDAVAETVQFLALVSGSLGKLAMDISIMMTTELGEVAEPFVRHRGASSTMPQKQNPVSCELILAGARIVRNHATSMLDAMIHDFERATGPWHLEWSAVPEGFAVASGILYQAEFMLGGLQVFPDRMRENLDHSRGLIVAEAVMMALAPHTGRKEAHDIVYLGCRRAVEDKTGLFEVLRTMPEVAKPLGEEALRDLTDPRNYLGSAGAMVDNVLGGREGHHHHHH | not failed
9 | MSLEAVTILLADDEAILLLDFESTLTDAGFLVTAVSSGAKAIEMLKSGAAIDGVVTDIRFCQPPDGWQVARVAREIDPNMPIVYISGHAALEWASNGVPDSIILEKPFTSAQLITAVSQLLNAREGHHHHHH | not failed
10 | MSLEDHAEELASDLGVDKEEVTRDLENLVNYSVPMDEAKQSLRRKYGDGSSGGDSTPSSKAINEVSTEDSNVTVTAVVLTSGRRSIQYNGEQHVIREGELADETGKISYTAWDGFSGDLQPGQTVQLGNAGVREWDGQPELNLGDSTDPEVVDETLDIDYDVGGRAALQDLAPGDRGITVEVQVLECEQKVIDGRDGETTILSGVLGDESGRLPFTDWDPHDEIEEGASVRLDETFVREFRGAPSVNVSEFSAVTALDRTVGVTEDAPRLSVREAVESGGLFDVELAGNVIEVRDGSGLIERCPECGRVIQNGQCRSHGAVEGEDDLRTKAILDDGTDTVTAVLDDELTARVYGGDLDDAREHARDAMDKEVVAERISDRIVGREYVVRGSLSVDEYGANLTASTFAEADDDPATRAQALLQEADTLEHHHHHH | not failed
11 | MSLEEVIEQLREANEPVPVPLELPDEDQLVEIEEQLFINIPFVFKEFLLTVSDVVYGSLEPVTVTDPQSHTYLPEVCATAWDLGVPRELIPICQDGEDYYCVEEDGTVLLWSAEEELVTEESWESVWHWARDVWLESEGHHHHHH | not failed
12 | MSLEKLKLIGDERLDYLLAENLRIIQSPSVFSFSIDAVLLAKFSYLPIRKGKIIDLCSGNGIIPLLLSTRTKAKIVGVEIQERLADMAKRSVAYNQLEDQIEIIEYDLKKITDLIPKERADIVTCNPPYFATPDTSLKNTNEHFRIARHEVMCTLEDTIRVAASLLKQGGKANFVHRPERLLDIIDIMRKYRLEPKRIQFVHPRSDREANTVLVEGIKDGKPGVKYVPPVIVYDELGEYTPVIKEILYGESEGHHHHHH | not failed
13 | MSLEQASVTNDFSENKQGCIQHPWQGKKVGYIGDSITDPNCYGDNIKKYWDFLKEWLGITPFVYGISGRQWDDVPRQAEKLKKEHGGEVDAILVFMGTNDYNSSVPIGEWFTEQEEQVLSAHGEMKKMVTRKKRTPVMTQDTYRGRINIGITQLKKLFPDKQIVLLTPLHRSLANFGDKNVQPDESYQNGCGEYIDAYVQAIKEAGNIWGIPVIDFNAVTGMNPMVEEQLIYFYDAGYDRLHPDTKGQERMARTLMYQLLALPVAFEGHHHHHH | not failed
14 | MSLETVRLQRELIEAQRQTYNEMRTYFTVNGVEGVIGAVFDEGVITLRVPSEVLFAPGAVELAPGADRVLATLKDLFIRRREQNINIKGFTDDVQPSANARFKDNWEVSALRSVNVLRYFLGAGIEPARLTATGLGELDPLFPNTSDENRARNRRVEFVLERRVVREGHHHHHH | not failed
15 | MSLEWQDLAQLPVSIFKDYVTDAQDAEKPFIWTEVFLREINRSNQEIILHIWPMTKTVILGMLDRELPHLELAKKEIISRGYEPVVRNFGGLAVVADEGILNFSLVIPDVFERKLSISDGYLIMVDFIRSIFSDFYQPIEHFEVETSYCPGKFDLSINGKKFAGLAQRRIKNGIAVSIYLSVCGDQKGRSQMISDFYKIGLGDTGSPIAYPNVDPEIMANLSDLLDCPMTVEDVIDRMLISLKQVGFNDRLLMIRPDLVAEFDRFQAKSMANKGMVSRDEEGHHHHHH | not failed
16 | MSLFMSCVGILVLLFIGFLLSENKKAINVRTIVIALITQISFGAFVMYVPLGQGILQMMSDAVNHIINFSNEGLTFVFGDLANYKVGFIFVINVLCVVIFISALISVLYYLKIMQFVINLIGGALSKLFGTSKAESMSATANIFVGPIEAPSMVRPLIKKMTRSELFAVMTGGLASVAGGTMIGYINLGIDPKYILTACFMTAPAGLLFAKLLCPQTEQEKITNEIEIDDETTPKSLLDAITDGSIMGMNQVATVTALLISFVALIALVNSLVGGIGDLISIEGLSLELIIGYILSPLAFLMGVPWSEAVTAASLIGQKIAVNEFVAYINFIEIAETLSPKTQAIVVFSLCGFANIGSLAMVIGGLGAICPNKRHILSEIGPRVLMAAILANLMSGTIAGALLSFS | failed
17 | MSLGAFLDKPKTEKHNAHGAGNGLRYGLSSMQGWRVEMEDAHTAVVGIPHGLEDWSFFAVYDGHAGSRVANYCSTHLLEHITTNEDFRAAGKSGSALELSVENVKNGIRTGFLKIDEYMRNFSDLRNGMDRSGSTAVGVMISPKHIYFINCGDSRAVLYRNGQVCFSTQDHKPCNPREKERIQNAGGSVMIQRVNGSLAVSRALGDYDYKCVDGKGPTEQLVSPEPEVYEILRAEEDEFIILACDGIWDVMSNEELCEYVKSRLEVSDDLENVCNWVVDTCLHKGSRDNMSIVLVCFSNEGHHHHHH | not failed
18 | MSLGFVTAAYIIAALLFIMSLAGLSKHETAKAGCWYGISGMAIALFATIFGPQSYGTIWILIAMAIGGYIGIQKALKVEMTAMPELVAILHSFVGLAAVLVGFNSYGLHNDPLIPSNLDAVARANFIVEQQTLATIHYIEVFLGIFIGAVTFSGSLIAFGKLSGNLFGCKVSSVALNLPNKHKLNLAALIISGLLMMVFLNNPVNIFPVLIMTIIALALGWHLVASIGGADMPVVVSMLNSYSGWAAAAAGFMLSNDLLIVTGALVGSSGAILSYIMCKAMNRSFISVIAGGFGNEMKADSAAEQAQGEHRETTVEDVAEMLKNAHSVIITPGYGMAVAQAQYPVAEITAKLREKGINVRFGIHPVAGRLPGHMNVLLAEAKVPYDVVLEMDEINDDFENTDVVLVIGANDTVNPAALDDPSSPIAGMPVLEVWKAQNVVVFKRSMAVGYAGVQNPLFFKENTQMLFGDAKERVDDILRALN | failed
19 | MSLGHGDEGITPLSSEIVNFSTTVWTDGDKDHLEKHLVENLNCIRHYPEPDAGTLRQMLAKRNSVDNNAILVTNGPTAAFYQIAQAFRGSRSLIAIPSFAEYEDACRMYEHEVCFYPSNEDIGEADFSNMDFCWLCNPNNPDGRLLQRTEILRLLNDHPDTTFVLDQSYVSFTTEEVIRPADIKGRKNLVMVYSFSHAYGIPGLRIGYIVANKDFMKRVAAFSTPWAVNALAIEAAKFILIHPAQFTLPIRKWQRNTVDFITALNRLDGVEVHPSGTTFFLLRLKKGTAAELKKYMLEEYNMLIRDASNFRGLDESYVRITTQRPAQNQLFIKALETFLEKYEGHHHHHH | not failed
20 | MSLHAAAVGPSVLPDLREQVEQIIAEARRQGASACEVAVSLEQGLSTSVRQGEVETVEFNRDQGFGITLYAGQRKGSASTSATGEAAIRETVAAALAIARHTSEDECAGLADAALMARELPELDLYHPWSLSPEQAVERALACEAAAFAADKRVTKADGTTLNTHQGCRVYGNSHGFIGGYASTRHSLSCVMIAEGEGQMQRDYWYDVNRRGEALASAESIGRRAAERAASRLGARPVQTAEVPVLFAPEIAVGLFGHFLGAISGGSLYRKSSFLEGALGQRLFPEWLSIDERPHLVGALGSASFDSDGLATYAKPFVENGELVSYVLGTYSGRKLGLPSTANAGGVHNLFVSHGDEDQAALIRRMERGLLVTELMGQGVNLVTGDYSRGAAGYWVENGEIQFPVQEVTIAANLRDLFRRIVAVGKDIERRGNLHTGSVLVESMMVAGR | not failed
